Paper doi:10.1101/2025.02.01.633781

Target: FUS (recombinant, produced in-house) (UniProt P35637 1-526)
Assay: EMSA

FUS (recombinant, produced in-house), sequence (P35637 whole entry): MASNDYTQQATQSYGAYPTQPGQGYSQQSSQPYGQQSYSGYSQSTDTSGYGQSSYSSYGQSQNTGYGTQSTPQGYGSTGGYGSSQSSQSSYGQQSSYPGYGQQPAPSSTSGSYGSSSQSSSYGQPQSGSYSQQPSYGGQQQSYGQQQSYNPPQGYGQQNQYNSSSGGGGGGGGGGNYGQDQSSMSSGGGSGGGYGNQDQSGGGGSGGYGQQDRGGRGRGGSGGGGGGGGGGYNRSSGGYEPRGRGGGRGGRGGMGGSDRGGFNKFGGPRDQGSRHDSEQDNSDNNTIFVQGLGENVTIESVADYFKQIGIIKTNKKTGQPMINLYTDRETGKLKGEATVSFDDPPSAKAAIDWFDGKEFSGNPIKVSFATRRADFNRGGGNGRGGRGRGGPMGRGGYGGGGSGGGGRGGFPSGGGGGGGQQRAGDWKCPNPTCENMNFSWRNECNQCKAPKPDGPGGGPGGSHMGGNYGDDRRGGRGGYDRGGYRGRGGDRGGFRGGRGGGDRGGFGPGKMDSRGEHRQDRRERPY

## GGACUCGGACUUGGACUCUGGACUUUGGAC (ssRNA) [4xDRACH]
  binding result: binds
